Laboratory results from patent US12728152B2, “Growth and differentiation factor 15 for treatment of proliferative vitreoretinopathy therapy” (The Board of Trustees of the Leland Stanford Junior …, priority 2020, dated 2026).

B1: GDF-15: secreted ligand of the TGF superfamily of proteins; human GDF-15 protein, SEQ ID NO: 1 (protein, listed as Homo sapiens)
chain: MPGQELRTVNGSQMLLVLLVLSWLPHGGALSLAEASRASFPGPSELHSEDSRFRELRKRYEDLLTRLRANQSWEDSNTDLVPAPAVRILTPEVRLGSGGHLHLRISRAALPEGLPEASRLHRALFRLSPTASRSWDVTRPLRRQLSLARPQAPALHLRLSPPPSQSDQLLAESSSARPQLELHLRPQAARGRRRARARNGDHCPLGPGRCCRLHTVRASLEDLGWADWVLSPREVQVTMCIGACPSQFRAANMHAQIKTSLHRLKPDTVPAPCCVPASYNPMVLIQKTDTGVSLQTYDDLLAKDCHCI

Assays:
ESC-NPCs = test: GDF-11-induced upregulation of EMT marker Fibronectin in ESC-NPCs (immunofluorescence); assay type: cell-based; conditions: ESC-derived NPCs
Description: FIG. 1. Smad2 inhibition (A) or simultaneous culture with GDF-15 (B) blocks GDF-11-induced upregulation of EMT marker Fibronectin in ESC-NPCs. Scale bar=100 μm.
(A) ESC-derived NPCs were pre-treated with DMSO or Smad2 inhibitor SB431542 (10 μM) for 1 h and then co-treated with PBS or GDF-11 (50 ng/ml) for another 7 days before harvest. (B) SC-derived NPCs were pre-treated with PBS or GDF-15 (50 ng/ml) for 1 h and then co-treated with PBS or GDF-11 (16.7 ng/ml) for another 7 days before harvest. GDF-15 was added daily while SB431542 and GDF-11 was only added one time in the beginning. Nucleus (DPAI) and EMT (Fibronectin) marker were then detected by immunofluorescence.

ARPE-19 cells = test: TGFβ-2-induced upregulation of phosph-Smad2 and EMT marker Fibronectin in ARPE-19 cells (Western blot); assay type: cell-based, Human; conditions: N=3, P<0.05
Description: FIG. 2: Simultaneous culture with GDF-15 reduces TGFβ-2-induced upregulation of phosph-Smad2 (A) and EMT marker Fibronectin (B) in ARPE-19 cells. (N=3, *P<0.05).
(N=3, *P<0.05). Human adult retinal pigment epithelial cells (ARPE-19) were pre-treated with PBS or GDF-15 (50 ng/ml) for 1 h and then co-treated with PBS or TGFβ-2 (1 ng/ml) for another hour (A) or 2 days (B) before harvest. For Fibronection detection, GDF-15 was added daily while TGFβ-2 was only added one time in the beginning. GAPDH (loading control), p-Smad2 and Fibronectin proteins were then detected by Western blot.

| Molecule | GDF-11-induced upregulation of EMT marker Fibronectin (ESC-NPCs; SB431542 10 μM pre-treated 1 h, then co-treated with GDF-11 (50 ng/ml) 7 days) | TGFβ-2-induced upregulation of EMT marker Fibronectin (ARPE-19 cells; GDF-15 50 ng/ml pre-treated 1 h (added daily), then co-treated with TGFβ-2 (1 ng/ml) 2 days) | TGFβ-2-induced upregulation of phosph-Smad2 (ARPE-19 cells; GDF-15 50 ng/ml pre-treated 1 h, then co-treated with TGFβ-2 (1 ng/ml) another hour) | GDF-11-induced upregulation of EMT marker Fibronectin (ESC-NPCs; GDF-15 50 ng/ml pre-treated 1 h (added daily), then co-treated with GDF-11 (16.7 ng/ml) 7 days) |
| --- | --- | --- | --- | --- |
| NC(=O)c1ccc(-c2nc(-c3ccc4c(c3)OCO4)c(-c3ccccn3)[nH]2)cc1 [SB431542, reference compound] | blocks | – | – | – |
| B1 | – | reduces | reduces | blocks |
